Biological target: T1, recombinant human VEGF-R1 (human, UniProt P17948 27-756, limits assumed)
T1 construct: Bought (Acro Biosystems), used as positive control analyte in SPR; also called rhVEGF-R1; VEGF receptor
Test: SPR, Biacore T200, 25 C, VEGF165 immobilized, multi cycle kinetics
Procedure: Surface plasmon resonance spectroscopy. The kinetic parameters of the VEGF-binders were measured using a Biacore T200 instrument at 25° C. The bait ligand (recombinant human VEGF₁₆₅, Acro Biosystems) was covalently immobilized on a sensor chip Cl surface at three different densities. The prey analyte (different DARPins, or as a positive control, recombinant human VEGF-R1 (Acro Biosystems)) was analysed using multi cycle kinetics in 10 mM HEPES pH 7.4, 150 mM NaCl, 3 mM EDTA, 0.05% Tween 20 at a flow rate of 50 μl/min.
For determination of the kinetic parameters, the concentration of the probe was measured using a BCA assay (Pierce) and the molecular weight was determined via the SPR signal measured at saturating conditions (Rₘₐₓ). See Table 4 for the MW determined via SPR. Each probe was measured twice on sensor surfaces with three different densities of covalently immobilized recombinant human VEGF₁₆₅. The KD of rhVEGF-R1 is in the double-digit nanomolar range. The unmodified DARPin has a single-digit picomolar affinity to human VEGF₁₆₅, as reported by Stahl et al. (Angiogenesis 16, 101-111 (2013)).

T1 sequence (P17948 27-756 limits assumed): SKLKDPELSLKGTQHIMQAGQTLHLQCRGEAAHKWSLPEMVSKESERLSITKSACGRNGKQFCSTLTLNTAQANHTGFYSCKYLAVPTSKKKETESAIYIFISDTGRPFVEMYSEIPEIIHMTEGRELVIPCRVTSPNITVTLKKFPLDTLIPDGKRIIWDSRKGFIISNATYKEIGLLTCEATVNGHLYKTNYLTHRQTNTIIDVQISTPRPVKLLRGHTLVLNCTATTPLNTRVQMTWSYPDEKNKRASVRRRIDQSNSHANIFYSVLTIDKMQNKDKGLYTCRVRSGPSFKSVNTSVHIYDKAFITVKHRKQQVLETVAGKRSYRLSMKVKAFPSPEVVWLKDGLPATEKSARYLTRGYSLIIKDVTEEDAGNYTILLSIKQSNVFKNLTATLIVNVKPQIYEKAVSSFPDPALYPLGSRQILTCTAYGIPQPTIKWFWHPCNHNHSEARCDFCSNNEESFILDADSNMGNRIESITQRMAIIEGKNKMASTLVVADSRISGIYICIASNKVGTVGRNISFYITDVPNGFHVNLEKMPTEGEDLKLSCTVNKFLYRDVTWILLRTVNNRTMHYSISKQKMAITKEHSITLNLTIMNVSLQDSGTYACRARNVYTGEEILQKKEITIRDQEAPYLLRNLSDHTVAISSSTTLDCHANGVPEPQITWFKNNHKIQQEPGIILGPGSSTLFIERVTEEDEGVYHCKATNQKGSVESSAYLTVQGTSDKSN

B1: recombinant human VEGF165 (ligand, UniProt P15692-4 27-191, looked up)
chain: APMAEGGGQNHHEVVKFMDVYQRSYCHPIETLVDIFQEYPDEIEYIFKPSCVPLMRCGGCCNDEGLECVPTEESNITMQIMRIKPHQGQHIGEMSFLQHNKCECRPKKDRARQENPCGPCSERRKHLFVQDPQTCKCSCKNTDSRCKARQLELNERTCRCDKPRR
notes: Bought (Acro Biosystems); covalently immobilized on a Biacore sensor chip C1 surface at three densities; also called VEGF-A
  Kd: 0.069 nM
  koff: 8.1e-05 s⁻¹
  kon: 1.1e+06 M⁻¹ s⁻¹

— US20220242919A1 (LIMMATECH BIOLOGICS, published 2022)
